The data set can be described thus: soluble on expression in E. coli; label from the status in PepcDB or PDB records.
On to “MSLRAVRLHAKWDPRPEFKLGPKDIEGKLTWLGSKVWRYPEVRVEEVPEPRIEKPTEIIIKVKACGICGSDVHMAQTDEEGYILYPGLTGFPVTLGHEFSGVVVEAGPEAINRRTNKRFEIGEPVCAEEMLWCGHCRPCAEGFPNHCENLNELGFNVDGAFAEYVKVDAKYAWSLRELEGVYEGDRLFLAGSLVEPTSVAYNAVIVRGGGIRPGDNVVILGGGPIGLAAVAILKHAGASKVILSEPSEVRRNLAKELGADHVIDPTKENFVEAVLDYTNGLGAKLFLEATGVPQLVWPQIEEVIWRARGINATVAIVARADAKIPLTGEVFQVRRAQIVGSQGHSGHGTFPRVISLMASGMDMTKIISKTVSMEEIPEYIKRLQTDKSLVKVTMLNEGHHHHHH”, for which the “soluble on expression in E. coli” value is listed as “soluble”.
Take “MGSDKIHHHHHHMPNQAWSYQMLHLDLAWLNQLYSEFQEQGLDLHIPQHKPLIIKDEFLYDAFTEMNETLFDAQKLIFEKEQSLLHCLIHLLLPHFILEEIQKPQYLYKDFLNLIDVISSSEGFISLEELAQRVGLSRYAIIRLFKANVGLTPHAFQINLKINQAREQLKKGVPLAELAVNLGFSDQSHFHKAFKAHTGVTPRQFQLAAAQ”: the “soluble on expression in E. coli” value is given as “not soluble”.
Then “MAFVKPILLKSATCLLPRVLKLLFATLKINVGYAGEKLPDDQRGVMFAFWHGKMIAGWLLARRLYPKREISAVVSLSGDGQILSDTLDRLGFHLIRGSSSRGKEVVRRGIGVALSNGGVAAVTPDGPRGPHHRFKYGTLRLAAQHRTPVVFAEISYDNARRLKSWDRFEIPLPFSRVRVTLHVVQVPEFPTEEAFRAWADELSTGFDDALEHHHHHH”, with “not soluble”.
Take “AHHHHHHGSRIVLAYSGGLDTSVILKLMQEKLGAEVITVTVDVGQKDDFEKIEEKAYKFGAVKHYYIDAKEEFAENYVCKAIKANALYENAYPLSTALARPLIVEKLVEVAKKEGAGIIAHGCTGKGNDQVRFNLGIKALMPEAEILQPVAEWNLTRDWEMEYAKKHGIPVSDKIYSIDENIWGRSIEGGVLEDPSIEPPEEVFEWTVSIEKAPDKPEYVTIGFENGVPVSLNGEKMKLLELILKLNEIAGKHGVGRIDHIEDRSVGIKSREVYEAPAAVTLIKAHQDLEKLTLTKWVIEFKSIVDSKWSWLVYNGLWYEPLRLALEGFIDEAEKAVNGEVTVKLWKGNAIVVGRKSDNALYDVKMATYEKFSTFDQKLAKGFIELFGMQSVLAYNMLHGVHSTSNISEIKEAIKTLE”: the “soluble on expression in E. coli” value is listed as “soluble”.
Then “MSLQYIVVTGGVISGLGKGTITSSIGHILKDSGFKVSSVKIDPYINYDAGTMNPYQHGEVFVLDDGSEVDLDLGNYERFMDINLSWKNNITTGKVYLEVIEKERHGDYLGKTVQIIPHITDEIKRRIRDVATSSKADFVLIEVGGTVGDIESMPFLEAVRQLKREENNVIFAHVTLVPEIGPTEEQKTKPTQHSVTALREIGIQPDIIFARSKNRLLEETKKRISLFTDVPEGGIISVYDVENVYLLPEVMVNEGFISYLSKLSGKEIKYRDSWKAYTENIKHPKDRVKIAIVGKYVDLHDAYISHKEAFSHVTGNTGIAVDIKWLDSEKVKDDQSMLSDVDAILIPGGFGYRGVEGKIAATRFALENHIPFLGICLGFQVAVIEIARDIIGLQNANSTEFDPATKYPVIDILPEQKGIKDLGGTMRLGSKKVLIKDGTLAKRIYGTDTIYERHRHRYEVNPNYISIIEKAGFVFSGTDEDGIRMEILEKKGDESFIATQYHSEFKSRPLNPSRVHLHLVQQALIYKKNKDIGEAVKLRSSVEGHHHHHH”, with “soluble”; and “MKQLNGGNVYRPTGKEKNLQAILNIHRHVIQNISPVTITAGKTLDIKIDNQSHILLITKGAIKVCRRIDSIVMGCGVSPMILGLVDAYADLYQLEENSDVFFIAETTCEYYPVPVKDFVEIADEKHLWRDISNILMYRIAFMTNRDRNLIGQDAYSQIKALLLELWSYPESSRFEINAQNFIQQRTGLSRSRIMQVLSELKAGDYIKILHGRLLELRNLPVSF”, with “not soluble”.
Under “ADTMTFTAKNGNVTFDHKKHQTIVPDCAVCHGKTPGKIEGFGKEMAHGKSCKGCHEEMKKGPTKCGECHKK” stands “soluble”; under “MGSDKIHHHHHHMVVILSERAFSRRDQTGAEVMLNRRRFLTNAATAAAATLWVSKGGMQARAEEAGNGSPWRRFEIITKVDLQPAEGPAQLWLPVVRSAGDYQKADAPLWVSNSTDIRMEKDPSSGADILRVMWEDEPRRVIEVTQHVATRDRRVTSKIAATEAELQHELRGTPSMPVDGIVKTTAMRIVEGRDRAEDRARAIYDWVIDNTFRDANIDGCGVGNARDMLETGYFGGKCADISSLFVSLARAAGLPARDVFGIRVADSADFKSLGRSGDITKAQHCRAEVYLDAHGWVPVDPADVRKVVLEENLPLDNPAVRAFREKAYGNWEMNWVGYNTARDLVLPGGELRQGFLMYPAAVTSRGELDCLNPQTFAYSITSREITA”, “not soluble”; under “AIATNDANHLESNCVEEQVQQSLREPWWWLRWRDTPRQQLRGTLFVYTATCPDEKIQRERGFAADHEQVYAFVSFGPEVETDPREHVVEIVKALTSMRSFVETLERTLFEDEDSEPAARTYTHDEPCSVAHHSADADQQFLVETVRHDRIAAAYSSMSQEMHTAPEGARPDCFSKGTSQDHETDTSQPILRKKDETDTWVVALGPDHLVASHTLAACGCALFLGLEWDFRACRSRSDDDFRIMELFQEDLKSRVTWLAPRLGLQHKHACSAQCKDQARNRDSSWDVLLREWLPQAIPGGPRHPQAM”, “soluble”.
Regarding “MSLKTGRALRIAVLVSGRLNLWFSSSIIEGLNEVFHDEGYDISIYQMSSTEERSEFFDMLPVRRNVDAVIVISFDIASNEIRQLRSVDVPIIGINSSLPEERGFNAAVRIDDKQGSELAARHLMMLGHRDIVYIRSDREVTLHFSVQGRYESFMACCQANGVEPRVLVTDAGRNRISKVVTQLLSLDHMPTAIACQEDGIAVPLLFQLERNGFTVPNDISIIGYDDSVYARDLGLTTIRQTPVEMAREAARMTLALIEKQPLDEPFKTFPAQLIVRSTTARLHSEGHHHHHH”, the “soluble on expression in E. coli” value is reported as “soluble”.
For “MGSDKIHHHHHHMTKDMQTFTLVPQGSLEGYIRAANAYPMLTAEEERALAERLHYQGDLEAAKHLILSHLRFVIHVARNYSGYGLPQADLIQEGNIGLMKAVRRFNPEVGVRLVSFAVHWIKAEIHEYVLRNWRIVKVATTKAQRKLFFNLRKAKTRLGWFNQDEVELVARELGVTTKDVREMESRMAAQDMTFDPTPEEDSHDGKAMSPMLYLQDKSSDFADGIEEDNWDTHAADKLTYALEGLDERSQHIIRARWLDDDNKSTLQELADQYGVSAERVRQLEKNAMKKLRAAIEA”, the “soluble on expression in E. coli” value is recorded as “not soluble”.
Then “MGSDKIHHHHHHMTTNKEQYKVHQEPYYQAQGREVQLYEAAYRNRLPVMVKGPTGCGKSRFVEYMAWKLNKPLITVACNEDMTASDLVGRYLLEANGTRWLDGPLTTAARIGAICYLDEVVEARQDTTVVIHPLTDHRRTLPLDKKGELIEAHPDFQLVISYNPGYQSLMKDLKQSTKQRFAAFDFDYPDAALETTILARETGLDETTAGRLVKIGGVARNLKGHGLDEGISTRLLVYAATLMKDGVDAGDACRMALVRPITDDADIRETLDHAIDATFA”, with “not soluble”; and “TDQAAFDTNIVTLTRFVMEEGRKARGTGEMTQLLNSLCTAVKAISTAVRKAGIAHLWGIAGSTNVTGDQVKKLDVLSNDLVINVLKSSFATCVLVSEEDKNAIIVEPEKRGKYVVCFDPLDGSSNIDCLVSIGTIFGIYRKNSTDEPSEKDALQPGRNLVAAGYALYGSATMLVLAMVNGVNCFMLDPAIGEFILVDRDVKIKKKGSIYSINEGYAKEFDPAITEYIQRKKFPPDNSAPYGARYVGSMVADVHRTLVYGGIFMYPANKKSPKGKLRLLYECNPMAYVMEKAGGLATTGKEAVLDIVPTDIHQRAPIILGSPEDVTELLEIYQKHAAK”, with “soluble”.
In the case of “MGSDKIHHHHHHFVSIELKDRSLVNNQYKGKIKSANLSVDYEINQVMKDIDKLGLNTVNVPIIINVESINSDIMSIDNNSKEKAIKLIKKLNKKGISTILEAYPWIENGKLYETDWNPINKKRFFYTWQNAILNELIIDVANPLDVNVLNIGSNFVHLEEYQQNWGEIIDFVQSKFDGLVTYRTNWWYTKKDDLSSKLFYEQKLNNNFFDKLDFISIAAYFELSNKPVNTVDELISALHSSTVNNRGQNIKQEIYNLYKAHRKPIFFGELGFSNRESASSQPWNHTPSKAVNGEEQARCFEAYKKVFENEDWINGFSVFCVGKIDDEKNFYPSKESIKVIKSWYE”, the “soluble on expression in E. coli” value is “not soluble”.
Under “MPKLYVIPTPIGNLKDITLRALEVLKEVNYIACEDTRRTMILLNHYGIKGKKLISYYEPKEEKQIPKILKVLEKEDVALVTDAGMPAISDPGYRLIRKCIEKGIEIEVLPGPSAVITALVGSGLPPDRFLFVGFPPKKGTKGFFEELKSCEDTTVILFENPNRLLKTLKIIHEVFGNVQACVARELTKLHEEYIRGNLEEIIQELESREKIKGEVVVLFRILEHHHHHH” stands “soluble”.
Under “MKMKLAVLPGDGIGPEVMDAAIRVLKTVLDNDGHEAVFENALIGGAAIDEAGTPLPEETLDICRRSDAILLGAVGGPKWDHNPASLRPEKGLLGLRKEMGLFANLRPVKAYATLLNASPLKRERVENVDLVIVRELTGGLYFGRPSERRGPGENEVVDTLAYTREEIERIIEKAFQLAQIRRKKLASVDKANVLESSRMWREIAEETAKKYPDVELSHMLVDSTSMQLIANPGQFDVIVTENMFGDILSDEASVITGSLGMLPSASLRSDRFGMYEPVHGSAPDIAGQGKANPLGTVLSAALMLRYSFGLEKEAAAIEKAVDDVLQDGYCTGDLQVANGKVVSTIELTDRLIEKLNNSAAGPRIFQ” stands “soluble”.
Regarding “MYINNKLTEDLLLGEIYYLISKTYFFIENIQKAINFAFLAKSEFEKVYNKKAYAKSLELLAEEHAKVGDLESAIAYSKQSLNVYKELEQLDKISSIEDSLGKLFFEFDNIEESFEHYNRAIKIREENTDSKLLDTLFNLCENHIKTKNMNKCIEILNEIKNKLNVSDVNRLIEYKILTFRIEVLQNNIKEAENILLDTLEIAKRNDMKKKEADISIRLGKFYLELKRDYEAAKYLDKGINNLKNLGVIKSLEHHHHHH”, the “soluble on expression in E. coli” value is on record as “not soluble”.
Then “MAHHHHHHMKQECNVCYFNLPDPESTLGPYDNELNYFTWGPGFEYEPEPQRKPLSIEESFENSEESEESVADIQQLEEKVDESDVRIYFNEKSSGGKISIDNASYNARKLGLAPSSIDEKKIKELYGDNLTYEQYLEYLSICVHDKDNVEELIKMFAHFDNNCTGYLTKSQMKNILTTWGDALTDQEAIDALNAFSSEDNIDYKLFCEDILQ”, with “soluble”; and “MSLGGEVRGPVAVADFAKHVAQLHADGDIGFSKEYEAIQGEALNDEYPSENSQHPENKGKNRYLNVIAYDHSRVHLRQVPGQKKHLDYINANFIDGYQKPRAFIGTQGPLPGTFDCFWRMVWEQRVAVIVMITNLVERGRRKCDMYWPKDGTETYGIIQVRLVKEDVMATYTVRTLHIKHLKMKKKKQSQMEKTVYQYHYTNWPDHGTPDHPLPVINFVKKSTTANLPDGGPIVVHSSAGVGRTGTFIVLDAMLKQIEAKGSLNVFGFLRYIRAQRNYLVQTEEQYIFIHDALVEAITSGETNEGHHHHHH”, with “soluble”; and “MVNQQEEINLSVALVTRNRPDSLERCLKSLRDQKVQPFEVVVSDDSDDLYKSSTKEIAQKWGCRYIDGPKRGLYANRNYVALACYGTHIRTMDDDHEFPEQHIEVCLNAIQSDPSSIWIIGEYSPTSSIENAPHPCPGQLHPRGFSFYPKDTQNCWAIADGASIYPKKIFASGLRFVEYYKFGASYLEWGSRLYYLSYRIRHLDSTYIIHHFNPKARSFSDQEMDQSSRFFAMLCHSFLYQSTFKNKCLFSYEILKQFILDPKLTIKCIINSWSNFELFSRSFCALEHHHHHH”, with “not soluble”.
